B1: EHEE_rd2_1257 (parent)
chain: EEERTFTNEEEARKAKKEAEKRGLRVTVTKDGTTWRVRIG

Variants of: B1
Assay: folding stability dG (cDNA display proteolysis); higher = more stable
Conditions: PBS, room temperature

Going from EEERTFTNEEEARKAKKEAEKRGLRVTVTKDGTYWRVRIG [T34Y] to EEEQTFTNEEEARKAKKEAEKRGLRVTVTKDGTTWRVRIG [R4Q], the “folding stability dG” value falls from 2.4 kcal/mol to 2 kcal/mol.

Compared with EEEYTFTNEEEARKAKKEAEKRGLRVTVTKDGTTWRVRIG [R4Y], EEEWTFTNEEEARKAKKEAEKRGLRVTVTKDGTTWRVRIG [R4W] is higher in “folding stability dG” value: 2.93 kcal/mol for the first, 3.03 kcal/mol for the second.

Compared with EEERAFTNEEEARKAKKEAEKRGLRVTVTKDGTTWRVRIG [T5A], EEERWFTNEEEARKAKKEAEKRGLRVTVTKDGTTWRVRIG [T5W] is higher in “folding stability dG” value: 1.49 kcal/mol for the first, 2.45 kcal/mol for the second.

Compared with EEERGFTNEEEARKAKKEAEKRGLRVTVTKDGTTWRVRIG [T5G], EEERNFTNEEEARKAKKEAEKRGLRVTVTKDGTTWRVRIG [T5N] is higher in “folding stability dG” value: 0.704 kcal/mol for the first, 1.29 kcal/mol for the second.

First: EEERTFTNELEARKAKKEAEKRGLRVTVTKDGTTWRVRIG [E10L]
Second: EEERTFTNEKEARKAKKEAEKRGLRVTVTKDGTTWRVRIG [E10K]
The “folding stability dG” value of the first is higher: 2.11 kcal/mol for the first, 2.07 kcal/mol for the second.

First: EEERTFTNECEARKAKKEAEKRGLRVTVTKDGTTWRVRIG [E10C]
Second: EEERTFTNEEEARWAKKEAEKRGLRVTVTKDGTTWRVRIG [K14W]
The “folding stability dG” value of the first is higher: 2.31 kcal/mol for the first, 1.94 kcal/mol for the second.

First: EEERTFTNEEEARRAKKEAEKRGLRVTVTKDGTTWRVRIG [K14R]
Second: EEERTFTNEEEARVAKKEAEKRGLRVTVTKDGTTWRVRIG [K14V]
The “folding stability dG” value of the first is higher: 2.17 kcal/mol for the first, 1.83 kcal/mol for the second.

First: EEERTFTNEEEARKAKKEAEKMGLRVTVTKDGTTWRVRIG [R22M]
Second: EEERTFTNEEEARKAKKEAEWRGLRVTVTKDGTTWRVRIG [K21W]
The “folding stability dG” value of the first is higher: 2.18 kcal/mol for the first, 1.71 kcal/mol for the second.

First: EEERTFTNEEEARKAKKEAEYRGLRVTVTKDGTTWRVRIG [K21Y]
Second: EEERTFTNEEEARKAKKEAEKRELRVTVTKDGTTWRVRIG [G23E]
The “folding stability dG” value of the first is higher: 1.82 kcal/mol for the first, -0.609 kcal/mol for the second.

Compared with EEERTFTNEEEARKAKKEAEKRMLRVTVTKDGTTWRVRIG [G23M], EEERTFTNEEEARKAKKEAEKRQLRVTVTKDGTTWRVRIG [G23Q] is lower in “folding stability dG” value: 0.537 kcal/mol for the first, 0.383 kcal/mol for the second.

First: EEERTFTNEEEARKAKKEAEKRRLRVTVTKDGTTWRVRIG [G23R]
Second: EEERTFTNEEGARKAKKEAEKRGLRVTVTKDGTTWRVRIG [E11G]
The “folding stability dG” value of the first is lower: 0.397 kcal/mol for the first, 1.34 kcal/mol for the second.

Compared with EEERTFTNEEEARKAKKEAEKRGLRVTVTEDGTTWRVRIG [K30E], EEERTFTNEEELRKAKKEAEKRGLRVTVTKDGTTWRVRIG [A12L] is lower in “folding stability dG” value: 1.31 kcal/mol for the first, 0.876 kcal/mol for the second.

Compared with EEERTFTNEEEARKAKKEAEKRGKRVTVTKDGTTWRVRIG [L24K], EEERTFTNEEEARKAKKEAEKRGIRVTVTKDGTTWRVRIG [L24I] is lower in “folding stability dG” value: 1.18 kcal/mol for the first, 1.16 kcal/mol for the second.

Going from EEERTFTWEEEARKAKKEAEKRGLRVTVTKDGTTWRVRIG [N8W] to EEERTFTQEEEARKAKKEAEKRGLRVTVTKDGTTWRVRIG [N8Q], the “folding stability dG” value rises from 0.726 kcal/mol to 1.12 kcal/mol.

First: EEERTFTNEEEARKAKKEAEKRGLRVVVTKDGTTWRVRIG [T27V]
Second: EEERTFTNEEEARKAKKEAEKRGLRVTVTKDGTTWRVRII [G40I]
The “folding stability dG” value of the first is lower: 1.88 kcal/mol for the first, 2.71 kcal/mol for the second.

Compared with EEVRTFTNEEEARKAKKEAEKRGLRVTVTKDGTTWRVRIG [E3V], EEERTFTNEEEARKAKKEYEKRGLRVTVTKDGTTWRVRIG [A19Y] is higher in “folding stability dG” value: 2.33 kcal/mol for the first, 2.37 kcal/mol for the second.

Going from EEERTFTNEEEARKAKKENEKRGLRVTVTKDGTTWRVRIG [A19N] to WEERTFTNEEEARKAKKEAEKRGLRVTVTKDGTTWRVRIG [E1W], the “folding stability dG” value rises from 0.597 kcal/mol to 3.19 kcal/mol.

Compared with LEERTFTNEEEARKAKKEAEKRGLRVTVTKDGTTWRVRIG [E1L], FEERTFTNEEEARKAKKEAEKRGLRVTVTKDGTTWRVRIG [E1F] is higher in “folding stability dG” value: 2.33 kcal/mol for the first, 2.99 kcal/mol for the second.

Going from EEERTFQNEEEARKAKKEAEKRGLRVTVTKDGTTWRVRIG [T7Q] to EEERTFGNEEEARKAKKEAEKRGLRVTVTKDGTTWRVRIG [T7G], the “folding stability dG” value falls from 1.83 kcal/mol to 1.68 kcal/mol.

Going from EEERTFHNEEEARKAKKEAEKRGLRVTVTKDGTTWRVRIG [T7H] to EEERTFCNEEEARKAKKEAEKRGLRVTVTKDGTTWRVRIG [T7C], the “folding stability dG” value rises from 1.86 kcal/mol to 1.95 kcal/mol.

Compared with EEERTFTNEEEARKAKKEAEKRGLRVTVLKDGTTWRVRIG [T29L], EEERTFTNEEEARKAKKEAEKRGLRVTVRKDGTTWRVRIG [T29R] is lower in “folding stability dG” value: 1.8 kcal/mol for the first, 1.51 kcal/mol for the second.

Going from EEERTFTNEEEARKAKKEAEKRGLRVTVNKDGTTWRVRIG [T29N] to EEERTFTNEEEARKAKKEAEKRGLRVTVDKDGTTWRVRIG [T29D], the “folding stability dG” value rises from 1.09 kcal/mol to 1.2 kcal/mol.

Going from EEERTFTNEEEARKAKKEAEKRGLRVTVHKDGTTWRVRIG [T29H] to EEERTFTNEEEARKAKKEAEKRGLRVTVTKDGQTWRVRIG [T33Q], the “folding stability dG” value rises from 1.7 kcal/mol to 2.27 kcal/mol.

Going from EEERTFTNEEEARKAKKEAEKRGLRVTVTKDGTTWIVRIG [R36I] to EEERTFTNEEEARKAKKEAEKRGLRVTVTKDGTTWKVRIG [R36K], the “folding stability dG” value falls from 3.03 kcal/mol to 2.08 kcal/mol.

Compared with EEERTFTNEEEARKAKKEAEKRGLRVTVTKDTTTWRVRIG [G32T], EEERTFTNEEEARKAKKEAEKRGLRVTVTKDVTTWRVRIG [G32V] is lower in “folding stability dG” value: 0.399 kcal/mol for the first, 0.363 kcal/mol for the second.

First: EEERTFTNEEEARKAKKEAEKRGLRVTVTKDGTTWRVRVG [I39V]
Second: EEERTFTNEEEARKAKKEAEKRGLRVTVTKDGTTWRFRIG [V37F]
The “folding stability dG” value of the first is higher: 1.64 kcal/mol for the first, 0.864 kcal/mol for the second.

First: EEERTFTNKEEARKAKKEAEKRGLRVTVTKDGTTWRVRIG [E9K]
Second: EEERTFTNTEEARKAKKEAEKRGLRVTVTKDGTTWRVRIG [E9T]
The “folding stability dG” value of the first is higher: 1.58 kcal/mol for the first, 0.236 kcal/mol for the second.

Going from EEERTFTNAEEARKAKKEAEKRGLRVTVTKDGTTWRVRIG [E9A] to EEERTFTNEEEARKAKKEAEKRGLRVTVTKDGTTPRVRIG [W35P], the “folding stability dG” value falls from 1.76 kcal/mol to 0.178 kcal/mol.

Compared with EEERTFTNEEEARKAKKEAEKRGLYVTVTKDGTTWRVRIG [R25Y], EEERTFTNEEEARKAKKEAEKRGLWVTVTKDGTTWRVRIG [R25W] is lower in “folding stability dG” value: 2.07 kcal/mol for the first, 1.98 kcal/mol for the second.

Going from EEERTFTNEEEARKAKKEAEKRGLIVTVTKDGTTWRVRIG [R25I] to EEERTFTNEEEARKAKKEAGKRGLRVTVTKDGTTWRVRIG [E20G], the “folding stability dG” value falls from 1.95 kcal/mol to 0.5 kcal/mol.

Compared with EEERTFTNEEEARKAKKEAHKRGLRVTVTKDGTTWRVRIG [E20H], EEERTFTNEEEARKAKKEATKRGLRVTVTKDGTTWRVRIG [E20T] is higher in “folding stability dG” value: 0.935 kcal/mol for the first, 1.11 kcal/mol for the second.

For EEERTFTNEEEARKAKTEAEKRGLRVTVTKDGTTWRVRIG [K17T], the “folding stability dG” value was 2.11 kcal/mol.

Reference: the MegaScale stability set (Tsuboyama et al. 2023)
